Assay results published in patent publication US20230100941A1, “MOLECULES TARGETING MUTANT RAS PROTEIN” (AELIN THERAPEUTICS, priority 2020, published 2023).
Ends that are not written are not given here.

Assays:
G12C mutant KRAS = molecular target: T1, G12C mutant KRAS (Homo sapiens, UniProt P01116, G12C); assay: In vitro translation assay with streptavidin pull-down of biotinylated pept-ins, Western blot for KRAS; type: binding; settings: 10 μM biotinylated pept-in
T1 construct: made in house; host or cells: cell-free: PURExpress In Vitro Protein Synthesis Kit (New England Biolabs), linear T7 PCR template
Procedure: (§1) In vitro translation assays were performed using the PURExpress® In Vitro Protein Synthesis Kit (New England Biolabs) according to the manufacturer's instructions. Briefly, linear DNA fragments containing T7 promotor and terminator sequences flanking the KRAS coding sequence were generated using PCR and purified using the MinElute PCR Purification Kit (Qiagen). 250 ng of linear DNA was subsequently used for the in vitro translation reaction, which was performed for 2 hours at 37° C. with shaking (1000 rpm). Indicated biotinylated pept-ins were mixed in the translation reactions from a 5 mM stock solution in 6M Urea to a final concentration of 10 μM. Upon completion of the translation reaction, biotinylated pept-ins were captured from the reaction mix using Streptavidin coated beads (Pierce) during 90 min at room temperature. Beads were next washed with TBS containing 0.1% Tween 20 and bound proteins were finally boiled off in 1×SDS loading dye (Bio-Rad) in TBS buffer. Proteins were resolved using Any kD 15-well Mini-PROTEAN gels (Bio-Rad) during SDS-PAGE and probed for KRAS after Western blotting using a mouse monoclonal KRAS-specific antibody (SC-30, Santa Cruz Biotechnology), which was detected with an HRP-coupled anti-mouse secondary antibody using chemiluminescence on a Bio-Rad Chemidoc MP imaging instrument.
(§2) To mimic this in vitro, we devised an in vitro translation setup producing either wild-type or mutant (G12V, G12C, G12D or G13D) KRAS in the presence of biotinylated RAS-targeting pept-ins. This allowed us to perform a streptavidin pull-down to capture the biotinylated pept-ins from the translation reaction and perform SDS-PAGE and Western blotting to probe the pulled-down fraction for the presence of KRAS. The biotinylated version of pept-in 04-004-N001, i.e. 04-004-N011, which harbours an APR window sequence derived from a wild-type APR, is predicted to target all RAS proteins independently from their mutation status.

G12D mutant KRAS = molecular target: T2, G12D mutant KRAS (Homo sapiens, UniProt P01116, G12D); assay: as above; type: binding; settings: 10 μM biotinylated pept-in
T2 construct: made in house; host or cells: cell-free: PURExpress In Vitro Protein Synthesis Kit (New England Biolabs), linear T7 PCR template
Procedure: as §1, §2

G12V mutant KRAS = molecular target: T3, G12V mutant KRAS (Homo sapiens, UniProt P01116, G12V); assay: as above; type: binding; settings: 10 μM biotinylated pept-in
T3 construct: made in house; host or cells: cell-free: PURExpress In Vitro Protein Synthesis Kit (New England Biolabs), linear T7 PCR template
Procedure: as §1, §2

G13D mutant KRAS = molecular target: T4, G13D mutant KRAS (Homo sapiens, UniProt P01116, G13D); assay: as above; type: binding; settings: 10 μM biotinylated pept-in
T4 construct: made in house; host or cells: cell-free: PURExpress In Vitro Protein Synthesis Kit (New England Biolabs), linear T7 PCR template
Procedure: as §1, §2

KRAS wild-type = molecular target: T5, KRAS wild-type (Homo sapiens, UniProt P01116); assay: as above; type: binding; settings: 10 μM biotinylated pept-in
T5 construct: made in house; host or cells: cell-free: PURExpress In Vitro Protein Synthesis Kit (New England Biolabs), linear T7 PCR template
Procedure: as §1, §2

[1] = molecular target: T6, mutant G12V KRAS in RASless MEFs (Homo sapiens, UniProt P01116, G12V); assay: Cellular co-immunoprecipitation assay in RASless MEFs; type: cell-based, mouse; settings: 25 μM biotinylated pept-in, 16 hours
T6 construct: host or cells: RASless mouse embryonic fibroblasts (HRAS/NRAS-null, endogenous KRAS removed)
Procedure: (§3) Cellular co-immunoprecipitation assays were performed using either KRAS wild-type or mutant G12V expressing RASless MEFs (see elsewhere) or human NCI-H441 lung adenocarcinoma tumor cells and N-terminally biotinylated pept-ins. Cells were seeded at a density of 300,000 cells in a clear 6-well plate (Cellstar, Greiner). One day after seeding, cells were treated with indicated pept-ins at a final concentration of 25 μM and incubated for […]. Next, cells were lysed with NP-40 lysis buffer (150 mM NaCl, 50 mM Tris HC1 pH8, 1% IGEPAL(NP40), 1xHalt phosphatase/protease inhibitors (Thermo), 1U/μl Universal Nuclease (Pierce)) and biotinylated pept-ins were captured with streptavidin-coated magnetic beads (Pierce) during 1 hours at room temperature. Beads were washed with NP40 lysis buffer at least 3 times, after which bound proteins were boiled off in 1× SDS loading dye (Bio-Rad) in NP40 lysis buffer. Proteins were resolved using Any kD 15-well Mini-PROTEAN gels (Bio-Rad) during SDS-PAGE and probed for KRAS after Western blotting using a rabbit polyclonal KRAS-specific antibody (12063-1-AP, Proteintech).
(§4) To this end, relevant MEF cells were treated with 25 μM biotinylated pept-ins overnight (16 hours). Next, cells were lysed, and pept-ins were immunoprecipitated from the lysates using streptavidin-coated beads. […]

[2] = molecular target: T7, wild-type KRAS in RASless MEFs (Homo sapiens, UniProt P01116); assay: as above; type: cell-based, mouse; settings: 25 μM biotinylated pept-in, 16 hours
T7 construct: host or cells: RASless mouse embryonic fibroblasts (HRAS/NRAS-null, endogenous KRAS removed)
Procedure: as §3, §4

[3] = test system: HeLa cell line overexpressing mCherry-tagged KRAS G12V; assay: Cellular fluorescent imaging of FITC-labelled pept-ins; type: cell-based, human; settings: 75 min after treatment
Procedure: Fluorescent cellular imaging was performed using HeLa cells that were transduced with lentiviral particles carrying a construct expressing KRAS G12V labeled N-terminally with mCherry. Cells were seeded in a black μclear® Cellstar® F-bottom 96-well plates (Greiner) in 100 μL full growth medium. […] Next, cells were fixed, washed and counterstained with the nuclear dye NucBlue™ (containing Hoechst 33342). Images were captured on a Leica confocal microscope.
To complement the co-immunoprecipitation approach, we also used a cellular imaging approach to show target engagement. To this end, we generated a HeLa cell line overexpressing mCherry-tagged KRAS G12V and FITC-labelled versions of the RAS-targeting pept-ins.

| Substance | pull-down of G12C mutant KRAS (G12C mutant KRAS) | pull-down of G12D mutant KRAS (G12D mutant KRAS) | pull-down of G12V mutant KRAS (G12V mutant KRAS) | pull-down of G13D mutant KRAS (G13D mutant KRAS) | pull-down of KRAS wild-type (KRAS wild-type) | co-precipitation of mutant G12V KRAS [1] | co-precipitation of wild-type KRAS [2] | association with mCherry-labelled KRAS (inclusion-like perinuclear structures) [3] |
| --- | --- | --- | --- | --- | --- | --- | --- | --- |
| 04-004-N011: biotinylated version of pept-in 04-004-N001 (KLSVFAIKGSKLSVFAIK; also: biotinylated, site not given here) | efficient pull-down | less efficient | efficient pull-down | less efficient | efficient pull-down | appeared to precipitate both wild-type and mutant G12V KRAS well | appeared to precipitate both wild-type and mutant G12V KRAS well |  |
| 04-015-N032: FITC-labelled version of pept-in 04-015-N001 (KVVVGAVGKGSKVVVGAVGK; also: FITC-labelled, site not given here) |  |  |  |  |  |  |  | associates with mCherry-labelled KRAS |
